Experimental data: patent US12138415B2, “Increased bioavailability of transdermally delivered agents” (priority 2011, dated 2024)

What was measured:
Dynamin = conditions: cited from earlier work
[1] = Organ and tissue etanercept concentration after 72 hours (sTNF RII ELISA); conditions: rabbit
Experimental: Test subjects (rabbits) were transdermally dosed with Enbrel® or were subcutaneously (SubQ) dosed with Enbrel®. […] The subcutaneous dose formulation (for the positive control) was prepared to facilitate a 2.5 mg/animal and the transdermal dose formulation was 1.875 mg/animal. Two subjects were utilized for each device type.
After 72 hours, several different organs and tissue types in each subject were examined for etanercept concentration. Specifically, organ representative samples of approximately 100 mg each were placed in labeled 50 mL conical storage tubes and stored in the dark at approximately −70° C. for preservation testing.
For analysis of Enbrel levels in tissues at the analytical laboratory, tissues were tested by use of a Quantikine® Human sTNF RII/TNFRSF1B Immunoassay (catalog no. DRT200, SRT200, PDRT200) available from R&D Systems, Inc. of Minneapolis, MN, USA. The immunoassay is a solid phase ELISA assay for determination of sTNF RII. The protein was measured against the standard provided with the kit, and etanercept was measured against a standard curve, with concentrations based on the dosage details.
All concentrations are provided as ng/g tissue. The ELISA detection mechanism could be utilized for concentrations down to about 0.6 pg/mL. Results of <MIN signify a concentration too low to be determined by the ELISA assay. Results of N/A indicate an error in the ELISA assay, with no reportable results obtained.

[2] = rabbit, in vivo
Text: An array of microneedles including a nanopatterned surface was formed. Initially, an array of microneedles as illustrated in FIG. 2 was formed on a silicon wafer via a photolithography process. Each needle included two oppositely placed side channels, aligned with one through-die hole in the base of the needle (not visible on FIG. 2).
Microneedles were formed according to a typical micromachining process on a silicon based wafer. The wafers were layered with resist and/or oxide layers followed by selective etching (oxide etching, DRIE etching, iso etching), resist stripping, oxide stripping, and lithography techniques (e.g., iso lithography, hole lithography, slit lithography) according to standard methods to form the array of microneedles. The microneedles were 300 microns tall and 100 microns in diameter.
Following formation of the microneedle array, a 5 μm polypropylene film including a DN2 or a polypropylene film including a DN3 pattern formed thereon as described above in Example 1 was laid over the microneedle array. The wafer/film structure was held on a heated vacuum box (3″ H2O vacuum) at elevated temperature (130° C.) for a period of one hour to gently pull the film over the surface of the microneedles while maintaining the nanopatterned surface of the film.
The transdermal patches measured 25 mm by 25 mm with a density of 784 microneedles/cm^2. Control patches were also formed that had no pattern formed on the film subsequently applied to the array of microneedles.
Two subjects were utilized for each device type.
Approximately 100 to 200 μl blood was taken via—mandibular bleeding and then centrifuged at approximately 1300 rpm for 10 minutes in a refrigerated centrifuge (set at 4° C.). The resulting serum was aspirated and transferred within 30 minutes of blood collection/centrifugation to appropriately labeled tubes. The tubes were frozen and stored in the dark at ≤−70° C. until they were analyzed for levels of Enbrel® using Human sTNF-receptor ELISA kit (R&D Systems cat #DRT200). The space time between two blood samplings on the same subject was 24 hours, to prevent unnecessary stress placed on the subject.
Following, the blood serum level gradually declined within 56 hours of attachment and then leveled off.

EpiDerm™ tissue = assay: Etanercept delivery across EpiDerm tissue on nanopatterned film (donor/receptor chamber); format: in vitro ADME; conditions: 1 mg/mL, 37° C.; for increase in the amount of etanercept in the receiver chamber: EpiDerm tissue on DN2 patterned film
Text: A device as illustrated in FIG. 28 was assembled including a film (i.e., a membrane) defining a pattern of nanostructures on a surface thereof. The film was formed as described above in Example 1 and was a polypropylene film including a DN2 pattern on the surface thereof. An EpiDerm™ tissue, a three dimensional construct organized into basal, spinous, and granular layers along a multi-layered stratum corneum available from MatTek Corporation, was located on the surface of the film as described above with regard to the monocellular layer.
A 1 mg/mL composition including the high molecular weight drug etanercept (Enbrel®) was prepared. Etanercept is a fusion protein having a molecular weight of 150 kDa. Phosphate buffered saline was located in the receptor chamber. The system was incubated at 37° C. and samples were withdrawn every five hours.
The composition was loaded in to the donor chamber on one side of an EpiDerm™ tissue either on the DN2 nanostructure film or on a polypropylene film with no nanopattern formed thereon (PPUI), and samples were withdrawn from the receptor chamber on the other side of the cell layer, as illustrated in FIG. 28. As can be see with reference to FIG. 29, following one hour, very little etanercept had passed into the receptor chamber for the control, while there was approximately a 1.7 fold increase in the amount of etanercept in the receiver chamber for the sample on the DN2 patterned film. After two hours, there was an approximately 2-fold increase for the system including the DN2 patterned film.

[3] = system: monolayer of Caco-2 cells; assay: Caco-2 monolayer permeability (TEER) transport study of FITC-etanercept with Dynasore blocking Dynamin; format: in vitro ADME, human; conditions: DN2 polypropylene film, 0.1 mg/mL Dynasore and FITC-conjugated etanercept, FIG. 25
Experimental: The permeability effects of films patterned as described above were determined on a monolayer of Caco-2 cells (human epithelial colorectal adenocarcinoma cells). The effects of the nanostructured surfaces on transcellular transport mechanisms were investigated by blocking Dynamin, a critical protein in endocytosis, with Dynasore. Dynamin is a large GTPase protein that self-assembles into a spiral shape, constricting around budding vesicles to free them from the plasma membrane and into the cytosol for transcellular transport. The small molecule, Dynasore, is able to rapidly block the activity of Dynamin by quickly inhibiting the GTPase module of Dynamin within about 2 minutes and has been used in numerous studies for probing the mechanisms of cellular internalization and endocytosis for transcellular transport. The transport study was a transepithelial electrical resistance (TEER) study that was carried out in the presence of Dynasore to biochemically block the activity of Dynamin and preclude both clathrin and caveolin mediated endocytosis.
Films formed as described in Example 1 and Example 2 were utilized including a polypropylene (PP) film formed with a pattern designated as DN2, and a flat, nonpatterned polypropylene film. As control, a monolayer of cells with no associated film was utilized.
• 1. […] Measure fluorescence signal using a spectrofluorometer plate reader. […]

Row | Compound | time to inhibit the GTPase module of Dynamin (Dynamin) [min] | etanercept concentration in kidney ([1]; Subcutaneous dose 2.5 mg/animal) [ng/g tissue] | etanercept concentration in kidney ([1]; microneedle patch with Control Film (no pattern), 1.875 mg/animal) [ng/g tissue] | etanercept concentration in kidney ([1]; microneedle patch with DN3 pattern, 1.875 mg/animal) [ng/g tissue] | absorption of etanercept compared to the flat, unstructured device [2] | bioavailability relative to the control patch [2] | blood serum level of etanercept (course) [2] | decrease of time to reach the maximum concentration [2] [h] | increase in the maximum concentration [2] [%] | time of peak blood serum level [2] | time within which blood serum level gradually declined, then leveled off [2] [h] | increase in the amount of etanercept in the receiver chamber (EpiDerm™ tissue; after two hours) | increase in the amount of etanercept in the receiver chamber (EpiDerm™ tissue; following one hour) [fold] | amount of etanercept passed into the receptor chamber (EpiDerm™ tissue; EpiDerm tissue on polypropylene film with no nanopattern (PPUI, control), following one hour) | effect of blocking the transcellular delivery route on etanercept transport across the layer [3]
1 | O=C(N/N=C/c1ccc(O)c(O)c1)c1cc2ccccc2cc1O [Dynasore] | ≤ 2 | – | – | – | – | – | – | – | – | – | – | – | – | – | –
2 | etanercept | – | 10.14 | 10.66 | 11.3 | significantly increased | about 35 times | very low levels | ~24 | 95 | approximately 48 hours | ≤ 56 | approximately 2 fold | ~1.7 | very little | did not significantly decrease
